The values that follow come from patent US20030224521, “Enhanced homologous recombination mediated by lambda recombination proteins” (The Gov. of the USA Secretary of the Department of Health …, published 2003).

The chains are these.
B1: galK 60-mer oligo (ssDNA)
DNA: GCGGTCGGAACCGTATTGCAGCAGCTTTATCATCTGCCGCTGGACGGCGCACAAATCGCG

The data set deals with T1, lambda Beta (Bet) (Bacteriophage lambda, UniProt P03698 P03698:1-261).
T1 sequence: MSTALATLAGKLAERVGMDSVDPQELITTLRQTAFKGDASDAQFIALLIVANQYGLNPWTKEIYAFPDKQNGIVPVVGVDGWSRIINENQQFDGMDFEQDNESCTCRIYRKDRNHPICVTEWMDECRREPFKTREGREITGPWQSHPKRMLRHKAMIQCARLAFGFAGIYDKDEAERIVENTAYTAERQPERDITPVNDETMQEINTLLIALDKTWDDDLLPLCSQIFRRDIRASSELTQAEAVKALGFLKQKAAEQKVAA
Briefly: cell_activity; HME9, Exo and Gam co-expressed. Particulars: tags: expressed from pL of defective prophage in E. coli. The method, then: Using the methods described in Examples 2, 3, 5, 10 and 11, lambda operon expression was heat-induced, cells were rendered electroporation-competent, and ssDNA oligonucleotides (200 ng each) were electroporated into E. coli HME9 strain cells. The electroporated ssDNA oligonucleotides included the 70-mer of SEQ ID NO: 11, a 60-mer constructed by removing the last 5 nucleotides from both the 5′ and 3′ ends of SEQ ID NO: 11, and a 50-mer, 40-mer, 30-mer, or 20-mer constructed by removing the last 10, 15, 20, or 25 nucleotides, respectively, from both the 5′ and 3′ ends of SEQ ID NO: 11. As in example 10, the ssDNA oligonucleotides used in this experiment were all designed to restore the galK+ gene upon successful recombination, thereby conferring upon the cell a Gal+ phenotype. Table 7 indicates the number of galK+ recombinants per viable cell, […].
On to GCAGCTTTATCATCTGCCGC (ssDNA) [galK 20-mer oligo], for which the activity is 1e-06 recombinants per viable cell.

For the molecule B1, the activity is 0.0006 recombinants per viable cell.

In the case of CCGTATTGCAGCAGCTTTATCATCTGCCGCTGGACGGCGC (ssDNA) [galK 40-mer oligo], the activity was 0.0004 recombinants per viable cell.

CGGAACCGTATTGCAGCAGCTTTATCATCTGCCGCTGGACGGCGCACAAA (ssDNA) [galK 50-mer oligo]: the activity was 0.0004 recombinants per viable cell.

Take TTGCAGCAGCTTTATCATCTGCCGCTGGAC (ssDNA) [galK 30-mer oligo]: the activity is 4.7e-05 recombinants per viable cell.
